In US20260297136A1, “PEPTIDES WITH LIPOLYTIC, ANTI-LIPOGENIC, ANTIFIBROTIC AND ANTI-INFLAMMATORY ACTIVITY” (FUNDACIÓ HOSPITAL UNIVERSITARI VALL D'HEBRON - INSTITUT DE …, priority 2023, published 2026):

Tests used:
[1] = system: HepG2 cells; experiment: Hepatic lipogenic key enzymes in HepG2 cells in the presence of 30 mM fructose (2 h), Example 7; format: cell-based, human; conditions: SHBG 20 nM
Experimental: FIG. 34. Effects of different peptides and SHBG in reducing hepatic lipogenic key enzymes in the presence of 30 mM fructose. Each bar within each group represents mRNA levels of a key hepatic lipogenic enzyme, from left to right: Acetyl-CoA Carboxylase (ACC), ATP Citrate Lyase (ACLY) and Fatty Acid Synthase (FAS), and a key transcription factor regulating several lipogenic enzymes such as PPARγ (PPARγ).
Cell culture reagents were from Life Technologies Inc (Invitrogen SA, Barcelona, Spain). HepG2 hepatoblastoma cells (cat. no. HB-8065; ATCC, LGC Standards SLU, Barcelona, Spain) were maintained in Dulbecco's modified Eagle medium (DMEM) supplemented with 10% fetal bovine serum and antibiotics.
• HepG2 cells were cultured for 5 day in the absence or presence of 30 mM fructose. Cells cultured in 30 mM fructose were daily treated with vehicle, Telmisartan, Semaglutide or EDL6D. • HepG2 cells were cultured for 24 h in the absence or presence of GP6 (40 μg/ml), GP10 (40 μg/ml), GP11 (40 μg/ml), GP12 (40 μg/ml), GP13 (40 μg/ml) or SHBG (20 nM). • HepG2 cells were cultured in the absence or presence of 30 mM fructose and treated for 2 h with vehicle or GP4 (40 μg/ml), GP6 (40 μg/ml), GP7 (40 μg/ml), GP8 (40 μg/ml), GP9 (40 μg/ml), GP10 (40 μg/ml), GP11 (40 μg/ml), GP12 (40 μg/ml), GP13 (40 μg/ml) or SHBG (20 nM).
Total RNA was extracted from HepG2 and LX-2 cells using TRIzol reagent (Invitrogen SA). Reverse transcription was performed at 42° C. for 50 minutes using […] of total RNA, 200 U of Superscript II, and an oligo-dT primer and reagents provided by Invitrogen. An aliquot of the reverse transcription product was amplified in a […] reaction using SYBRGreen (Invitrogen SA) with appropriate oligonucleotide primer pairs corresponding to human SHBG, ACC, FAS, ACLY, PPARG, and 18S and mouse ACC, FAS, ACLY, PPARG, Col1A1 and 18S. Results were analyzed using the 7000 Sequence Detection System program (Applied Biosystems, Thermo Fisher Scientific, Barcelona, Spain) (Shez-Lopez et al Endocrinology 2017).

[2] = EP 3003351 A1; cited from earlier work

B1: SHBG: sex hormone-binding globulin (SHBG) protein (protein, UniProt P04278 30-402, looked up)
Sex hormone-binding globulin: LRPVLPTQSAHDPPAVHLSNGPGQEPIAVMTFDLTKITKTSSSFEVRTWDPEGVIFYGDTNPKDDWFMLGLRDGRPEIQLHNHWAQLTVGAGPRLDDGRWHQVEVKMEGDSVLLEVDGEEVLRLRQVSGPLTSKRHPIMRIALGGLLFPASNLRLPLVPALDGCLRRDSWLDKQAEISASAPTSLRSCDVESNPGIFLPPGTQAEFNLRDIPQPHAEPWAFSLDLGLKQAAGSGHLLALGTPENPSWLSLHLQDQKVVLSSGSGPGLDLPLVLGLPLQLKLSMSRVVLSQGSKMKALALPPLGLAPLLNLWAKPQGRLFLGALPGEDSSTSFCLNGLWAQGQRLDVDQALNRSHEIWTHSCPQSPGNGTDASH
[1]
  fructose-induced expression of ACC: able to reduce
  fructose-induced expression of ACLY: able to reduce
  fructose-induced expression of FAS: able to reduce
  fructose-induced expression of PPARγ: able to reduce
[2]
  lipolytic and anti-lipogenic activity: has lipolytic and anti-lipogenic activity
